Measurements taken from the supplement of paper PMC7877785.
± gives the uncertainty stated by the source.

Assay: self-splicing fitness, log relative to wild type (ln ratio); higher = more splicing; Tetrahymena group I intron in knt gene, E. coli kanamycin selection, DiMSum; sequences stand for … in CUCUCU…GGAGGGAAAAGUUAUCAGGCAUGCACCUGGUAGCUAGUCUUUAAACCAAUAGAUUGCAUCGGUUUAAAAGGCAAGACCGUCAAAUUGCGGGAAAGGGGUCAACAGCCGUUCAGUACCAAGUCUCAGGGGAAACUUUGAGAUGGCCUUGCAAAGGGUAUGGUAAUAAGCUGACGGACAUGGUCCUAACCACGCAGCCAAGUCCUAAGUCAACAGAUCUUCUGUUGAUAUGGAUGCAGUUCACAGACUAAAUGUCGGUCGGGGAAGAUGUAUUCUUCUCAUAAGAUAUAGUCGGACCUCUCCUUAAUGGGAGCUAGCGGAUGAAGUGAUGCAACACUGGAGCCGCUGGGAACUAAUUUGUAUGCGAAAGUAUAUUGAUUAGUUUUGGAGUACUCGUGGUCG
How it was run: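 Library with all eight P1ex-region intron nucleotides randomised, intron inside the knt kanamycin-resistance gene on pET-22b(+), in E. coli BL21(DE3). Cells grew overnight at 37°C or 30°C on LB agar with or without 25 μg/mL kanamycin (plus 100 μg/mL carbenicillin, 50 μM IPTG, 0.2% rhamnose), in six replicate transformations. Pooled colonies were amplicon-sequenced on Illumina HiSeq 2500. DiMSum fitness is the error-weighted combination of wild-type-normalised replicate fold changes, kanamycin versus none.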

Sequence | self-splicing fitness (ln) (30 °C) | self-splicing fitness (ln) (37 °C)
CUAAAGCAAUAUUACGCAAG | -1.11 ± 0.089 | -0.574 ± 0.12
CUAAAGCAAUAUUACGCACA | -2.11 ± 0.16 | -2.11 ± 0.27
CUAAAGCAAUAUUACGCACG | -0.0346 ± 0.092 | 0.511 ± 0.14
CUAAAGCAAUAUUACGCAGA | -3.64 ± 0.2 | -3.29 ± 0.42
CUAAAGCAAUAUUACGCAGC | -3.5 ± 0.33 | -2.3 ± 0.44
CUAAAGCAAUAUUACGCCCC | -1.15 ± 0.45 | –
CUAAAGCAAUAUUACGCCGC | -2.9 ± 0.22 | –
CUAAAGCAAUAUUACGCGUC | -3.94 ± 0.31 | -2.17 ± 0.25
CUAAAGCAAUAUUACGGAAC | -2.36 ± 0.19 | -1.42 ± 0.17
CUAAAGCAAUAUUACGGCAG | -0.0254 ± 0.076 | -0.422 ± 0.098
CUAAAGCAAUAUUACGGUGU | -4.65 ± 0.25 | -3.05 ± 0.21
CUAAAGCAAUAUUACGUGAA | -3.29 ± 0.23 | -3.36 ± 0.32
CUAAAGCAAUAUUACGUUAC | -3.78 ± 0.26 | -2.06 ± 0.31
CUAAAGCAAUAUUACGUUUU | -4.6 ± 0.26 | -2.58 ± 0.21
CUACAGCAAUAUUACGAACU | -4.38 ± 0.24 | -2.02 ± 0.25
CUACAGCAAUAUUACGACGA | -2.65 ± 0.15 | -2.02 ± 0.18
CUACAGCAAUAUUACGAGGC | – | -1.35 ± 0.3
CUACAGCAAUAUUACGAGUG | -0.714 ± 0.047 | -0.418 ± 0.068
CUACAGCAAUAUUACGAUCA | -1.82 ± 0.17 | -1.49 ± 0.2
CUACAGCAAUAUUACGAUUU | -4.36 ± 0.22 | -1.95 ± 0.14
CUACAGCAAUAUUACGCCGG | -2.19 ± 0.13 | -1.26 ± 0.13
CUACAGCAAUAUUACGCGUC | -3.92 ± 0.26 | -2.77 ± 0.24
CUACAGCAAUAUUACGCGUG | -1.83 ± 0.076 | -1.03 ± 0.089
CUACAGCAAUAUUACGCUAC | -3.78 ± 0.22 | -2.25 ± 0.24
CUACAGCAAUAUUACGCUAU | -4.01 ± 0.19 | -2.6 ± 0.18

Sequence | self-splicing fitness (ln) (30 °C) | self-splicing fitness (ln) (37 °C)
CUACAGCAAUAUUACGCUUU | -3.79 ± 0.25 | -2.38 ± 0.16
CUACAGCAAUAUUACGGAAC | -4.6 ± 0.34 | -3.47 ± 0.35
CUACAGCAAUAUUACGGACG | -0.196 ± 0.072 | 0.601 ± 0.1
CUACAGCAAUAUUACGGACU | -1.76 ± 0.17 | -1.75 ± 0.19
CUACAGCAAUAUUACGGCAU | -3.6 ± 0.23 | -2.34 ± 0.23
CUACAGCAAUAUUACGGCUU | -2.38 ± 0.15 | –
CUACAGCAAUAUUACGGGAA | -2.88 ± 0.24 | -2.28 ± 0.23
CUACAGCAAUAUUACGGGGC | -2.95 ± 0.2 | -2.57 ± 0.22
CUACAGCAAUAUUACGGUCC | -2.72 ± 0.18 | -2.15 ± 0.24
CUACAGCAAUAUUACGGUCG | -0.256 ± 0.068 | 0.417 ± 0.082
CUACAGCAAUAUUACGUAGA | -4.4 ± 0.21 | -2.56 ± 0.14
CUACAGCAAUAUUACGUAGG | -1.39 ± 0.059 | -1.14 ± 0.093
CUACAGCAAUAUUACGUCCG | -0.955 ± 0.095 | 0.368 ± 0.12
CUACAGCAAUAUUACGUUGA | -3.13 ± 0.17 | -3.35 ± 0.21
CUAGAGCAAUAUUACGACAG | 0.262 ± 0.087 | 0.734 ± 0.12
CUAGAGCAAUAUUACGAGCA | – | -3.27 ± 0.31
CUAGAGCAAUAUUACGAGGA | -2.99 ± 0.2 | -2.53 ± 0.28
CUAGAGCAAUAUUACGAUCG | 0.45 ± 0.066 | 0.245 ± 0.088
CUAGAGCAAUAUUACGAUCU | -4.31 ± 0.34 | -2.29 ± 0.34
CUAGAGCAAUAUUACGAUGG | -0.193 ± 0.11 | 0.418 ± 0.14
CUAGAGCAAUAUUACGCAAA | -2.62 ± 0.27 | -1.27 ± 0.4
CUAGAGCAAUAUUACGCAGU | -2.58 ± 0.12 | -3.17 ± 0.2
CUAGAGCAAUAUUACGCAUU | -3.2 ± 0.18 | -2.2 ± 0.25
CUAGAGCAAUAUUACGCCAU | -3.39 ± 0.19 | -3.11 ± 0.29
CUAGAGCAAUAUUACGCCGC | -2.52 ± 0.37 | –

Sequence | self-splicing fitness (ln) (30 °C) | self-splicing fitness (ln) (37 °C)
CUAGAGCAAUAUUACGCGAU | -0.892 ± 0.084 | -0.253 ± 0.11
CUAGAGCAAUAUUACGCUAC | -2.83 ± 0.27 | –
CUAGAGCAAUAUUACGCUAU | – | -2.47 ± 0.48
CUAGAGCAAUAUUACGGAAG | -0.402 ± 0.07 | -0.264 ± 0.1
CUAGAGCAAUAUUACGGAGA | -2.51 ± 0.26 | -2.51 ± 0.48
CUAGAGCAAUAUUACGGCAG | 0.0667 ± 0.08 | 0.49 ± 0.11
CUAGAGCAAUAUUACGGGGA | -2.35 ± 0.22 | -3.06 ± 0.47
CUAGAGCAAUAUUACGGGGG | -2.64 ± 0.24 | -1.11 ± 0.27
CUAGAGCAAUAUUACGGUAC | -3.01 ± 0.33 | –
CUAGAGCAAUAUUACGUAAC | -4.96 ± 0.38 | -2.32 ± 0.19
CUAGAGCAAUAUUACGUGUA | -4.57 ± 0.46 | -2.41 ± 0.23
CUAGAGCAAUAUUACGUGUU | -3.3 ± 0.26 | -2.8 ± 0.3
CUAUAGCAAUAUUACGAAAA | – | -2.17 ± 0.29
CUAUAGCAAUAUUACGAACG | 0.0017 ± 0.29 | -0.388 ± 0.33
CUAUAGCAAUAUUACGAAGG | -1.76 ± 0.13 | -1.72 ± 0.19
CUAUAGCAAUAUUACGACCA | -3.1 ± 0.29 | -2.44 ± 0.35
CUAUAGCAAUAUUACGAGGG | -3.08 ± 0.21 | -2.41 ± 0.27
CUAUAGCAAUAUUACGAUAU | -2.53 ± 0.21 | -2.45 ± 0.45
CUAUAGCAAUAUUACGCAGA | -2.65 ± 0.16 | -1.2 ± 0.14
CUAUAGCAAUAUUACGCGCA | -2.97 ± 0.46 | -1.65 ± 0.47
CUAUAGCAAUAUUACGCGGC | -1.25 ± 0.26 | 0.45 ± 0.25
CUAUAGCAAUAUUACGCGGG | -3.11 ± 0.28 | -2.88 ± 0.31
CUAUAGCAAUAUUACGCUAA | -1.65 ± 0.2 | -2.41 ± 0.32
CUAUAGCAAUAUUACGCUCU | -3.4 ± 0.29 | -2.3 ± 0.34
CUAUAGCAAUAUUACGCUGU | -3.72 ± 0.26 | -1.29 ± 0.22

Sequence | self-splicing fitness (ln) (30 °C) | self-splicing fitness (ln) (37 °C)
CUAUAGCAAUAUUACGGAGU | -4.03 ± 0.28 | -2.86 ± 0.26
CUAUAGCAAUAUUACGGCAC | -2.18 ± 0.24 | -1.09 ± 0.42
CUAUAGCAAUAUUACGGCCA | – | -3.35 ± 0.43
CUAUAGCAAUAUUACGGCUA | -2.95 ± 0.28 | -3.42 ± 0.47
CUAUAGCAAUAUUACGGGAC | -2.51 ± 0.3 | –
CUAUAGCAAUAUUACGGGAG | -2.58 ± 0.27 | -1.87 ± 0.28
CUAUAGCAAUAUUACGGUAA | -3.01 ± 0.23 | -1.69 ± 0.18
CUAUAGCAAUAUUACGGUAU | -4.43 ± 0.36 | -3.22 ± 0.27
CUAUAGCAAUAUUACGGUUG | -0.804 ± 0.088 | 0.0411 ± 0.1
CUAUAGCAAUAUUACGGUUU | -3.72 ± 0.12 | -2.58 ± 0.17
CUAUAGCAAUAUUACGUGGA | -2.83 ± 0.19 | -2.4 ± 0.27
CUAUAGCAAUAUUACGUUAC | -3.45 ± 0.25 | -2.14 ± 0.33
CUAUAGCAAUAUUACGUUGG | -3.71 ± 0.16 | -2.79 ± 0.17
CUCAAGCAAUAUUACGAAGU | -3.75 ± 0.2 | -2.36 ± 0.21
CUCAAGCAAUAUUACGACGU | -2.18 ± 0.098 | -1.54 ± 0.11
CUCAAGCAAUAUUACGAGAC | -3.27 ± 0.21 | -2.35 ± 0.23
CUCAAGCAAUAUUACGAGCG | -3 ± 0.15 | -1.31 ± 0.12
CUCAAGCAAUAUUACGAGGG | – | -2.8 ± 0.43
CUCAAGCAAUAUUACGAUAC | -1.63 ± 0.18 | –
CUCAAGCAAUAUUACGAUUA | -3.59 ± 0.47 | -2.37 ± 0.23
CUCAAGCAAUAUUACGCACU | -3.2 ± 0.24 | -2.08 ± 0.28
CUCAAGCAAUAUUACGCUAC | -4.12 ± 0.29 | -2.23 ± 0.24
CUCAAGCAAUAUUACGCUUU | -4.09 ± 0.37 | -3.52 ± 0.31
CUCAAGCAAUAUUACGGAAA | -3.21 ± 0.28 | -2.6 ± 0.25
